Four substances from paper PMC6980832, “Crystal structures of Triosephosphate Isomerases from Taenia solium and Schistosoma mansoni provide insights for vaccine rationale and drug design against helminth parasites” (PLoS Neglected Tropical Diseases, 2020) can be followed below.

What all share (assay): SEC; gel filtration elution profile of wild-type and point mutants of SmTPI; conditions not shown
Background: SEC sorts molecules by how far they enter the pores of the column.

Assay [1] has as its target SmTPI-C221Y (Schistosoma mansoni).
Assay [2] has as its target SmTPI-C221S (Schistosoma mansoni).
In assay [3] the target is SmTPI-C221K (Schistosoma mansoni).
The target of assay [4] is SmTPI-C221D (Schistosoma mansoni).

In the case of SmTPI-C221Y (enzyme), the stoichiometry N (as a rule, a count of units in the complex or per binding partner) in assay [1] was 2.

Take SmTPI-C221S (enzyme): the stoichiometry N in assay [2] is 2.

In assay [3], SmTPI-C221K (enzyme) gave a stoichiometry N of 2.

SmTPI-C221D (enzyme) had a stoichiometry N in assay [4] of 2.
